Target: human FGFR1c together with human beta-Klotho (KLB), stably expressed on CHO Flp-In cells (human) (UniProt P11362)
Experiment: cell-based or functional assay

human FGFR1c together with human beta-Klotho (KLB), stably expressed on CHO Flp-In cells (human), sequence (P11362 22-822, chain 1 of 2): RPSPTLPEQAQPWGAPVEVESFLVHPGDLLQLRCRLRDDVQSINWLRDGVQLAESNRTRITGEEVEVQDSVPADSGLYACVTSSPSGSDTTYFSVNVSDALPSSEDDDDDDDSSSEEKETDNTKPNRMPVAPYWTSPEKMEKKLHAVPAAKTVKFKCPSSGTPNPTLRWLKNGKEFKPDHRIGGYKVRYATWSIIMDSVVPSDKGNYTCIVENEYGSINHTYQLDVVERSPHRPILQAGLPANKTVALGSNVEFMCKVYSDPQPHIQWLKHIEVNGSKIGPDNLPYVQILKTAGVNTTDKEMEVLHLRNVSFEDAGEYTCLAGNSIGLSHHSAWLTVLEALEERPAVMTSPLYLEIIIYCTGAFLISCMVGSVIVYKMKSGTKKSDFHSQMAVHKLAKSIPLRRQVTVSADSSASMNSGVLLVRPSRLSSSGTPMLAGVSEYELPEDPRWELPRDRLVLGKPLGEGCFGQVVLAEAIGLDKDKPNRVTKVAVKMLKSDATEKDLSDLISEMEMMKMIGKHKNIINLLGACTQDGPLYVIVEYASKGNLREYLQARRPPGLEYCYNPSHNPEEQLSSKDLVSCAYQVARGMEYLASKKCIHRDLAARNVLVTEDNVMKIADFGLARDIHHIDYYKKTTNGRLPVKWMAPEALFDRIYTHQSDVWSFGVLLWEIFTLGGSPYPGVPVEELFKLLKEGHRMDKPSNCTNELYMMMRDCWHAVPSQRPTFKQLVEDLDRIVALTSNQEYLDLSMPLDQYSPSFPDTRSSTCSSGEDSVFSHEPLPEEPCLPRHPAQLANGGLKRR
human FGFR1c together with human beta-Klotho (KLB), stably expressed on CHO Flp-In cells (human), sequence (Q86Z14 whole entry, chain 2 of 2, further chain): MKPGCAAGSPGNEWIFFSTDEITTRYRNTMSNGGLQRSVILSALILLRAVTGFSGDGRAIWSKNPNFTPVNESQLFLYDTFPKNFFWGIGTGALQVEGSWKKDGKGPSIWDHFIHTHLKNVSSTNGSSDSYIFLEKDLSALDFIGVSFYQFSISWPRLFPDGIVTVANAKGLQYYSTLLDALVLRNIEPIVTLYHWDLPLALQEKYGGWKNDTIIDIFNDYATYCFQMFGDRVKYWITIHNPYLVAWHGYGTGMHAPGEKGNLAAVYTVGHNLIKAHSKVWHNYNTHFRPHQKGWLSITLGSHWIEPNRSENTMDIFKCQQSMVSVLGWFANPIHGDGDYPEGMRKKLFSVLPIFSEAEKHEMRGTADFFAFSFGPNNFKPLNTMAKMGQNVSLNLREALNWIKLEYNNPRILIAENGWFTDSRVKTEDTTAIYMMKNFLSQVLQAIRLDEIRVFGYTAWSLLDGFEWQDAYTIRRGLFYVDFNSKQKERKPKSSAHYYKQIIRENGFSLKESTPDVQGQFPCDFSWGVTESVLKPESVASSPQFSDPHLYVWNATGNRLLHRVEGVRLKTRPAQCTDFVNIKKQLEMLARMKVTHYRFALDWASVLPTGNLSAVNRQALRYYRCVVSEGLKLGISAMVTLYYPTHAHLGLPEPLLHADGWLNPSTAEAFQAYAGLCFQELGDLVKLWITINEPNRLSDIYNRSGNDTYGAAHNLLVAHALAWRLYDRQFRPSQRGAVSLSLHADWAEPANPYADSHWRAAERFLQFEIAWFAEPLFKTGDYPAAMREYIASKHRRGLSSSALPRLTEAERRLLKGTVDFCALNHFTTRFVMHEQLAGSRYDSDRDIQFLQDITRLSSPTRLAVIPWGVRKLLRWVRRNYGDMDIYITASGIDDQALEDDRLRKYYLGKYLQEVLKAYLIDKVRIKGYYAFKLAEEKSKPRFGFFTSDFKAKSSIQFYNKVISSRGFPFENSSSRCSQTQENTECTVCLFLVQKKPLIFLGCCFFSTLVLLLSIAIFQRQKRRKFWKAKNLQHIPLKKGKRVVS
FGF21 V197 deleted (SEQ ID NO: 34), sequence (Q9NSA1 other isoform, or with tags, fused parts or gaps): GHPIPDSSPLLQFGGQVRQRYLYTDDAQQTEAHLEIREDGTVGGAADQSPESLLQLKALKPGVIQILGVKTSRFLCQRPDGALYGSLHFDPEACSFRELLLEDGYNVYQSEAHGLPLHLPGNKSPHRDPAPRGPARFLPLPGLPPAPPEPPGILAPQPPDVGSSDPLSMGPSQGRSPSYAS
FGF21 Q201 deleted (SEQ ID NO: 62), sequence (Q9NSA1 other isoform, or with tags, fused parts or gaps): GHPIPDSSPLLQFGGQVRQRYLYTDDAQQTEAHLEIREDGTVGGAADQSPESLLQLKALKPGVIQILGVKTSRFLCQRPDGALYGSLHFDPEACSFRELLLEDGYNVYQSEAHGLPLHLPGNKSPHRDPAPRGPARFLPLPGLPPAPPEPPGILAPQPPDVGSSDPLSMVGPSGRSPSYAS
FGF21 S204 deleted (SEQ ID NO: 65), sequence (Q9NSA1 other isoform, or with tags, fused parts or gaps): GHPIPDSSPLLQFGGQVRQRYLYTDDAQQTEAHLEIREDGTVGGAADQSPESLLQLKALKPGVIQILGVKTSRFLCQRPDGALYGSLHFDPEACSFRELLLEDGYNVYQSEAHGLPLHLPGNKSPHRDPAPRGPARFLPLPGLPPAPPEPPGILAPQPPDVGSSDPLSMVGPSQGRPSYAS
FGF21 P205 deleted (SEQ ID NO: 66), sequence (Q9NSA1 other isoform, or with tags, fused parts or gaps): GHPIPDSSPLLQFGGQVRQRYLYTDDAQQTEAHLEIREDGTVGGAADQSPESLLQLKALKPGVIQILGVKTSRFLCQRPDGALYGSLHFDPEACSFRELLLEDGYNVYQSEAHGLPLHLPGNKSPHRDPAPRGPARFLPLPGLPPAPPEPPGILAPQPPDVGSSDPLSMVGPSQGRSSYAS
FGF21 G198 deleted, S200 deleted (SEQ ID NO: 74), sequence (Q9NSA1 other isoform, or with tags, fused parts or gaps): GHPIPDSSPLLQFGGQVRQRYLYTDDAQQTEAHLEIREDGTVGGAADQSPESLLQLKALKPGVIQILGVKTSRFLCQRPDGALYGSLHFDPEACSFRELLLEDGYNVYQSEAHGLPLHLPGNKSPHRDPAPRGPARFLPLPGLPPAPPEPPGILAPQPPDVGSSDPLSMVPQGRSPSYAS
FGF21 GGGGS inserted between G198 and P199 (SEQ ID NO: 15), sequence (Q9NSA1 other isoform, or with tags, fused parts or gaps): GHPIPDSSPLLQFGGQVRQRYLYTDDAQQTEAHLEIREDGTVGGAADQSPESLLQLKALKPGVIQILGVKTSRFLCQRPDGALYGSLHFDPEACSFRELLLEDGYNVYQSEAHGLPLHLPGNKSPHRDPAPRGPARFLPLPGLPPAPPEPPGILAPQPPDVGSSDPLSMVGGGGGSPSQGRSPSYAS
FGF21 S191 deleted (SEQ ID NO: 53), sequence (Q9NSA1 other isoform, or with tags, fused parts or gaps): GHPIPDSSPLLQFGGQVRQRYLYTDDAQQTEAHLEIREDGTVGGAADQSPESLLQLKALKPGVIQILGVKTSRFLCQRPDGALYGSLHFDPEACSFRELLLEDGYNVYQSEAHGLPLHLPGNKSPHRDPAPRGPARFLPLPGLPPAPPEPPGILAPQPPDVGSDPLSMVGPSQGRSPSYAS
FGF21 R203 deleted (SEQ ID NO: 64), sequence (Q9NSA1 other isoform, or with tags, fused parts or gaps): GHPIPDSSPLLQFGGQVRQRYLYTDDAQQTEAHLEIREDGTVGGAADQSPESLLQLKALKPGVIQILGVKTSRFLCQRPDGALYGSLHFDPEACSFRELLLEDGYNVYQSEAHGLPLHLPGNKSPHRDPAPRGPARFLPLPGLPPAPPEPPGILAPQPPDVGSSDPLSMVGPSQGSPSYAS
FGF21 P186 deleted (SEQ ID NO: 58), sequence (Q9NSA1 other isoform, or with tags, fused parts or gaps): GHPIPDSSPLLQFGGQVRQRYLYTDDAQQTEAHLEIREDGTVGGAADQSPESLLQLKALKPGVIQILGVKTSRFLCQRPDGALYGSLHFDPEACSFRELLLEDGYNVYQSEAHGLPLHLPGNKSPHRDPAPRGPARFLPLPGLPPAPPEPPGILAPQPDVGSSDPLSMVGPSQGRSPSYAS
FGF21 P199 deleted (SEQ ID NO: 11), sequence (Q9NSA1 other isoform, or with tags, fused parts or gaps): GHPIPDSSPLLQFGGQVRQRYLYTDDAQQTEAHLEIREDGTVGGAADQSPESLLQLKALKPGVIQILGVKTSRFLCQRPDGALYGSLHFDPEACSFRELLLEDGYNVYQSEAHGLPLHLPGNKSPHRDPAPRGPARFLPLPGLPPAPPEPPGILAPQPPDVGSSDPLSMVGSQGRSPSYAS
FGF21 S206 deleted (SEQ ID NO: 67), sequence (Q9NSA1 other isoform, or with tags, fused parts or gaps): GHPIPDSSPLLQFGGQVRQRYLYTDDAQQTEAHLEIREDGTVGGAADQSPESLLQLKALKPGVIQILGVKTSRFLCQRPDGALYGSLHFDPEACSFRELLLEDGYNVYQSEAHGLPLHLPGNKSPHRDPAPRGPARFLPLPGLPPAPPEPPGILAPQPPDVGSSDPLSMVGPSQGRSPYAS
FGF21 D187 deleted (SEQ ID NO: 57), sequence (Q9NSA1 other isoform, or with tags, fused parts or gaps): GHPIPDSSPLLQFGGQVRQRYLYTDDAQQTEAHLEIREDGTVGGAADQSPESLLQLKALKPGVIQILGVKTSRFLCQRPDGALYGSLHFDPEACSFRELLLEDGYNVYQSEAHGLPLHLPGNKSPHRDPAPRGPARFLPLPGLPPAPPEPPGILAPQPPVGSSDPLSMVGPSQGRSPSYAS
FGF21 V197 deleted, S201 deleted (SEQ ID NO: 69), sequence (Q9NSA1 other isoform, or with tags, fused parts or gaps): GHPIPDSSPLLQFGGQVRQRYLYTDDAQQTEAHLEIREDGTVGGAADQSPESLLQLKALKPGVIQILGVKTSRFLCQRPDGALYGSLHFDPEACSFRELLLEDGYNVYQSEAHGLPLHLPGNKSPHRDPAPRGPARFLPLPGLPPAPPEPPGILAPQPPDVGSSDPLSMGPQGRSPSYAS
FGF21 G202 deleted (SEQ ID NO: 63), sequence (Q9NSA1 other isoform, or with tags, fused parts or gaps): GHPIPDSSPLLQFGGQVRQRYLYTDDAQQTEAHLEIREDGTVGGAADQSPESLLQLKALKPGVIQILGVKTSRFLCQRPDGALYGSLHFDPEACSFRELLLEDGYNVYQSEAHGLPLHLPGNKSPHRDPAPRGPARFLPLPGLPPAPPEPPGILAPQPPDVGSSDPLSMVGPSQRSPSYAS
FGF21 Q184 deleted (SEQ ID NO: 60), sequence (Q9NSA1 other isoform, or with tags, fused parts or gaps): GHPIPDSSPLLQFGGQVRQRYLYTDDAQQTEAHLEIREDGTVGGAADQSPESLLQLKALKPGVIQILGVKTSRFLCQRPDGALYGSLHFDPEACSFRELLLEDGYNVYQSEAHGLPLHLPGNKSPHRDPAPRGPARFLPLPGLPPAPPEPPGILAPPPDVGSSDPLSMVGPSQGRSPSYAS
FGF21 G198-P199 deleted (SEQ ID NO: 30), sequence (Q9NSA1 other isoform, or with tags, fused parts or gaps): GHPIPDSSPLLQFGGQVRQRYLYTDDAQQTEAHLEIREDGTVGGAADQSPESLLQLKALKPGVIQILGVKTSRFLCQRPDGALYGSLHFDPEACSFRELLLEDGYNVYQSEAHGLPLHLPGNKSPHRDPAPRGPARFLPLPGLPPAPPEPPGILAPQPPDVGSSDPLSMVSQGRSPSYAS

| Substance | pERK ICW EC50 [nmol/L] |
| --- | --- |
| FGF21 A54C, P161C (SEQ ID NO: 109) (from UniProt Q9NSA1 29-209) (ligand) | 6.38 |
| FGF21 S76C, S79C, G198Y (SEQ ID NO: 39) (from UniProt Q9NSA1 29-209) (ligand) | 0.15 |
| FGF21 S191 deleted (SEQ ID NO: 53) (from UniProt Q9NSA1 29-209) (ligand) | 97.3 |
| FGF21 G198Y (SEQ ID NO: 20) (from UniProt Q9NSA1 29-209) (ligand) | 0.68 |
| FGF21 P186 deleted (SEQ ID NO: 58) (from UniProt Q9NSA1 29-209) (ligand) | 0.87 |
| FGF21 V197-R203 deleted and replaced by GLNSMV (SEQ ID NO: 28) (from UniProt Q9NSA1 29-209) (ligand) | 78.1 |
| FGF21 G108C, L142C (SEQ ID NO: 86) (from UniProt Q9NSA1 29-209) (ligand) | 1.48 |
| FGF21 G108C, L142C, P199 deleted (SEQ ID NO: 40) (from UniProt Q9NSA1 29-209) (ligand) | 0.9 |
| FGF21 A59C, A73C (SEQ ID NO: 105) (from UniProt Q9NSA1 29-209) (ligand) | 19.2 |
| FGF21 G67C, R100C (SEQ ID NO: 112) (from UniProt Q9NSA1 29-209) (ligand) | 23.3 |
| FGF21 S204 deleted (SEQ ID NO: 65) (from UniProt Q9NSA1 29-209) (ligand) | 25.7 |
| FGF21 Q55C, G148C, N149-R159 deleted and replaced by GGSGGS (SEQ ID NO: 95) (from UniProt Q9NSA1 29-209) (ligand) | 7.27 |
| FGF21 E62C, S79C (SEQ ID NO: 102) (from UniProt Q9NSA1 29-209) (ligand) | 0.55 |
| FGF21 P77C, K97C (SEQ ID NO: 117) (from UniProt Q9NSA1 29-209) (ligand) | 8.76 |
| FGF21 L80C, V96C (SEQ ID NO: 119) (from UniProt Q9NSA1 29-209) (ligand) | 17.9 |
| FGF21 G198D (SEQ ID NO: 17) (from UniProt Q9NSA1 29-209) (ligand) | 4.94 |
| FGF21 Q55C, P147C, P199 deleted (SEQ ID NO: 44) (from UniProt Q9NSA1 29-209) (ligand) | 10 |
| FGF21 GGGGS inserted between G198 and P199 (SEQ ID NO: 15) (from UniProt Q9NSA1 29-209) (ligand) | 3.07 |
| FGF21 V197E (SEQ ID NO: 14) (from UniProt Q9NSA1 29-209) (ligand) | 31.4 |
| FGF21 G198P, P199G (SEQ ID NO: 24) (from UniProt Q9NSA1 29-209) (ligand) | 10.8 |
| FGF21 S206 deleted (SEQ ID NO: 67) (from UniProt Q9NSA1 29-205) (ligand) | 31.9 |
| FGF21 P199T (SEQ ID NO: 23) (from UniProt Q9NSA1 29-209) (ligand) | 1.66 |
| FGF21 R47C, P174C (SEQ ID NO: 90) (from UniProt Q9NSA1 29-209) (ligand) | 14.5 |

| Substance | pERK ICW EC50 [nmol/L] |
| --- | --- |
| FGF21 P199R (SEQ ID NO: 22) (from UniProt Q9NSA1 29-209) (ligand) | 0.95 |
| FGF21 R203 deleted (SEQ ID NO: 64) (from UniProt Q9NSA1 29-209) (ligand) | 6.69 |
| FGF21 G108C, L142C, G198Y (SEQ ID NO: 41) (from UniProt Q9NSA1 29-209) (ligand) | 0.55 |
| FGF21 G198K (SEQ ID NO: 19) (from UniProt Q9NSA1 29-209) (ligand) | 1.81 |
| FGF21 P199Q, Q201P (SEQ ID NO: 10) (from UniProt Q9NSA1 29-209) (ligand) | 1.76 |
| FGF21 H140C, L142C (SEQ ID NO: 82) (from UniProt Q9NSA1 29-209) (ligand) | 2.27 |
| FGF21 Q201 deleted (SEQ ID NO: 62) (from UniProt Q9NSA1 29-209) (ligand) | 1.91 |
| FGF21 G198E (SEQ ID NO: 16) (from UniProt Q9NSA1 29-209) (ligand) | 4.53 |
| FGF21 H60C, S79C (SEQ ID NO: 75) (from UniProt Q9NSA1 29-209) (ligand) | 67.1 |
| FGF21 S200 deleted (SEQ ID NO: 61) (from UniProt Q9NSA1 29-209) (ligand) | 1.17 |
| FGF21 D187 deleted (SEQ ID NO: 57) (from UniProt Q9NSA1 29-209) (ligand) | 86.1 |
| FGF21 V69C, L110C (SEQ ID NO: 113) (from UniProt Q9NSA1 29-209) (ligand) | 11.7 |
| FGF21 Q55C, P147C, G198Y (SEQ ID NO: 45) (from UniProt Q9NSA1 29-209) (ligand) | 3.6 |
| FGF21 E78C, T98C (SEQ ID NO: 118) (from UniProt Q9NSA1 29-209) (ligand) | 9.22 |
| FGF21 Q55G, Q56C, L146C, P147-R159 deleted and replaced by GGSGGS (SEQ ID NO: 98) (from UniProt Q9NSA1 29-209) (ligand) | 155 |
| FGF21 I63C, T98C (SEQ ID NO: 111) (from UniProt Q9NSA1 29-209) (ligand) | 87.6 |
| FGF21 Q104C, H140C (SEQ ID NO: 108) (from UniProt Q9NSA1 29-209) (ligand) | 21.9 |
| FGF21 Q104C, S137C (SEQ ID NO: 107) (from UniProt Q9NSA1 29-209) (ligand) | 1.83 |
| FGF21 P199G (SEQ ID NO: 21) (from UniProt Q9NSA1 29-209) (ligand) | 1.65 |
| FGF21 E62C, A72C (SEQ ID NO: 106) (from UniProt Q9NSA1 29-209) (ligand) | 2.03 |
| FGF21 P205 deleted (SEQ ID NO: 66) (from UniProt Q9NSA1 29-209) (ligand) | 27.4 |
| FGF21 S76C, S79C, P199 deleted (SEQ ID NO: 38) (from UniProt Q9NSA1 29-209) (ligand) | 1.25 |
| FGF21 G198 deleted, S200 deleted (SEQ ID NO: 74) (from UniProt Q9NSA1 29-209) (ligand) | 77.8 |

Results, then the substance that gave them:

| pERK ICW EC50 [nmol/L] | Substance |
| --- | --- |
| 68.8 | FGF21 V197 deleted (SEQ ID NO: 34) (from UniProt Q9NSA1 29-209) (ligand) |
| 11.8 | FGF21 A72C, S79C (SEQ ID NO: 87) (from UniProt Q9NSA1 29-209) (ligand) |
| 5.05 | FGF21 I63C, G112C (SEQ ID NO: 79) (from UniProt Q9NSA1 29-209) (ligand) |
| 85.8 | FGF21 V197D, G198V, P199D, S200H (SEQ ID NO: 26) (from UniProt Q9NSA1 29-209) (ligand) |
| 14.5 | FGF21 G198-P199 deleted (SEQ ID NO: 30) (from UniProt Q9NSA1 29-209) (ligand) |
| 8.18 | FGF21 G202 deleted (SEQ ID NO: 63) (from UniProt Q9NSA1 29-209) (ligand) |
| 1.16 | FGF21 A59C, G71C, P199 deleted (SEQ ID NO: 36) (from UniProt Q9NSA1 29-209) (ligand) |
| 163 | FGF21 Q55G, Q56C, L146C (SEQ ID NO: 96) (from UniProt Q9NSA1 29-209) (ligand) |
| 48.2 | FGF21 R100C, L114C (SEQ ID NO: 103) (from UniProt Q9NSA1 29-209) (ligand) |
| 2.44 | FGF21 E62C, E78C (SEQ ID NO: 101) (from UniProt Q9NSA1 29-209) (ligand) |
| 1.03 | FGF21, human (SEQ ID NO: 2), with N-terminal tag (from UniProt Q9NSA1 29-209) (ligand) |
| 0.58 | FGF21 Q55C, N149C, G198Y (SEQ ID NO: 47) (from UniProt Q9NSA1 29-209) (ligand) |
| 46.5 | FGF21 L81C, G95C (SEQ ID NO: 121) (from UniProt Q9NSA1 29-209) (ligand) |
| 9.44 | FGF21 G198 deleted, P199L, S200N (SEQ ID NO: 33) (from UniProt Q9NSA1 29-209) (ligand) |
| 4.8 | FGF21 G198 deleted, P199L (SEQ ID NO: 32) (from UniProt Q9NSA1 29-209) (ligand) |
| 1.44 | FGF21 S76C, S79C (SEQ ID NO: 85) (from UniProt Q9NSA1 29-209) (ligand) |
| 8.19 | FGF21 Q55C, G148C, N149-R159 deleted and replaced by GSGS (SEQ ID NO: 94) (from UniProt Q9NSA1 29-209) (ligand) |
| 8.28 | FGF21 L146C, A162C (SEQ ID NO: 35) (from UniProt Q9NSA1 29-209) (ligand) |
| 2.31 | FGF21 P199 deleted (SEQ ID NO: 11) (from UniProt Q9NSA1 29-209) (ligand) |
| 1.62 | FGF21 S200Q, Q201S (SEQ ID NO: 25) (from UniProt Q9NSA1 29-209) (ligand) |
| 2.26 | FGF21 Q184 deleted (SEQ ID NO: 60) (from UniProt Q9NSA1 29-209) (ligand) |
| 1.72 | FGF21 P199S, S200P (SEQ ID NO: 9) (from UniProt Q9NSA1 29-209) (ligand) |
| 17.6 | FGF21 P143C, A162C (SEQ ID NO: 116) (from UniProt Q9NSA1 29-209) (ligand) |
| 98.7 | FGF21 V197 deleted, S201 deleted (SEQ ID NO: 69) (from UniProt Q9NSA1 29-209) (ligand) |
| 49.4 | FGF21 D130C, Y132C (SEQ ID NO: 83) (from UniProt Q9NSA1 29-209) (ligand) |
| 0.48 | FGF21 Q55C, G148C (SEQ ID NO: 93) (from UniProt Q9NSA1 29-209) (ligand) |

Source: patent US20250171512A1
